# According to the DeepSol protein solubility set:
# Assay: soluble on expression in E. coli; label from the status in PepcDB or PDB records
row,Sequence,soluble on expression in E. coli
1,GNFTYAHSEFLKYEEPAYNEKYRSHIGQSLNQWYGLIAERLFIDEYDVQNSPKQTFGEYGAGDIKYRDVNGDGQITDADMVPLGYPTVPEIVYGFGFSFGNQRFDISAFFQGSARSSFWIDAKATSPFQHINPTDDDPYHQDIPLLKAYANDHWSESNRNLYAMWPRLSTTVIENNVRTSSWFMRNGAFLRLKTLEVGYTLPESWTKKAYISSARVYCSGNNLLLLSGFKLWDIEMGGSGLGYPIQRVINLGVQINF,not soluble
2,GPASQHFLSTSVQGPWERAISPNKVPYYINHETQTTCWDHPKMTELYQSLADLNNVRFSAYRTAMKLRRLQKALCLDLLSLSAACDALDQHNLKQNDQPMDILQIINCLTTIYDRLEQEHNNLVNVPLCVDMCLNWLLNVYDTGRTGRIRVLSFKTGIISLCKAHLEDKYRYLFKQVASSTGFCDQRRLGLLLHDSIQIPRQLGEVASFGGSNIEPSVRSCFQFANNKPEIEAALFLDWMRLEPQSMVWLPVLHRVAAAET,soluble
3,GPGSFIDPPSDQGMSDAFYQLLYFGAVDDGLQLTDFGRRMAVLPVDVCLARMLLMAPKHGCGADAAVVAAMLEAGNAFSRPPSRLAEAREAHARFDNADGDHVALFRVFHAYFKNQQNGKRFCYENYLRHQTLQQAVQVYKQLRRLMSQLMIPVQSTYIPEREYVDTVALRKAVLEGFFTQVAFLTPVAPITH,not soluble
4,GPGSMAAIGGGSGDIEELLKQITNHPGVQGIIIVNTDGIPIRHTFQEHSRLLAVQYSALFQSLAMKARNAVLEIDNNNELLFLRVRTKKHEVLVAPDTKYLLIVIQQVESGDAVPNANGVSA,not soluble
5,GPGSMADNEEVPPSGPRMTREETDELVRRLYDQQMERAARREEERQRQLARPFCSSRRIKKDEEENLVRRIYDVQRERFQQSKEERERRLTLELQSKDKKLPESEIQDQVDRIYNQEVAKSKARREELQKRYLPEVPPKTIGKKQLKESVERLFRVDYVKRDEELFKKHVYPYDPPTTKISRTDVEAMANRLSRRGS,not soluble
6,GPGSMAETTIGFRCQDFVLVAAAGLNAFYYIKITDTEDKITELDSHKVVACAGENGPRTHFVEYVKCNMALKKMREHGRMISTHATASFMRNTLAGALRSRDGLYPVNCLLAGFDVPASAEDDVATGAHLYYLDYLGTLQEVPYGCHGYGAPFVTAMLDRMWRPNLTAQEGVELMQKCCDEVKKRVVVSNNTFICKAVTKDGVERVQSVS,soluble
7,GPGSMALATTGYPALASSHSFANASTSVMTASAMAVVRRAATTTGASAATTTPQVVHYSKLGMDGFTDIKFNTAADELLELVETKVDALDSAAVEDVSCNGGVLTLETTDRGTFILNKQAPNVQLWLSSPISGPHHYDMITVTQGGHEKVSWKSDHDGHDLVKKLEEELTEVLGTDFKV,soluble
8,GPGSMASNITAERYEQLKKERTFHKFTYRGLEIDPLLALSEEEFKALVHARARRNMNRHADRRPPVLLKRLREAKKHVKVGEKPKAVKTHLRDVVITPEMVGSVVAIYNGHQFNAVEIKGEMIGHYLGEFSMSYRPVLHGRPGVGATHSSRFIPIK,soluble
9,GPGSMCKLHVKRTAAHSSCAVTKDNFNAIGYGARLVFKICNIADCIVRNGESNRVLSVSSTIMSMSVIHGGITIQTIPVHCVFNYELCNPLRMAHVDRQKCAPGYVVSDPLPEINEYSDADVVIKNLLSAHSLHDAHEKNAFTALVRAMISDRDMQKLGGNTEADQYALIGVFLILYGPGSIKIANQENELVPKKHVDYCGKKQIMNLTRKNHDT,not soluble
10,GPGSMDVYRQAAEIVGIVREGNGTAKALCLRKDMQKKKQTYAVVCETLRHYELLEDVLEVAEFFKYYPQANHEFAMCMAYDVVLGKGVNTHNDSTARAVSHSASYLREAYWQVRKHHVIPPRSSEKLDDEVAADTEGGARGKRRSGDSVSSSPSLQLPRYARVNTLKISVEELVSRLRRSAEVRKRARDAKDNDGDAAASSHPQQQNGDKRATRRASSRPHRPLPEFTQDPVVPHLLVFPPGTDLHAHPAVRSGQLILQDRASCLPAAVLLDAVPVEVIEGDTAGSSKGRKKAKGGTALGKEKGRGNETDAAARRPLEYVVDACAAPGNKTTQLAALGAPHIKIMATERDERRADLLSKRVASLGAADYVNVVSMDFFQLSSDDRAATEGILLDPSCSASGVMTRVDVALQHHHHHHHEQQRKGKARQADRRVSLLQGSRRGSHHEDADRNAAEEGQLDDGDREETANSGAINPAAQGNEFSMKEERVEKLARLQRKLLAHSLLSFDNCRTVVYSTCSVHEEENEEVVRQVLDDERVKARGWRLSNIMPNTWKTRGAEREGEEHPLRFTIRCDPATEATNGFYVARFDRVC,soluble
11,GPGSMENKDVATSWDYNSAEIGEFVPNSCTGTHFPNGIACAPWFQQQVTSQPHLCSSEFASSVESVGGPACRVGSEGSDYCFMNKSVCRNEEEGAEEVEGNEGESNLRWGMHIHPAALRAVQASSREVVQGLIRDKELLCSQFGTMQQNIPLAITWHDTTAPSPNQTLASTFTPLPHKKRSRDLVTLLSGISPDWEAAEEVGGASAAAHVGGLEIQRKRFRVDNPTIGSAAYEVSKAATAASPKPWIKARQKRVREEGDEDVNVNVEWGRGRDGNENSGR,soluble
12,GPGSMEVNATLIDCCDPQKPSRVLFHFLILDAPSPSNLPTYIKELQHRGVRHLVRVCGPTYDATLVKSRGIDVHSWPFDDGAPPTRAVLDSWLKLLDTELARQQEDPSVPPPTIGVHCVAGLGRAPILVALALVEYGNVSALDAIALIREKRKGAINQTQMHWITKYKRRHQGAGCVIM,soluble
13,GPGSMEYVGALYKDYGELLSTAQNSFLNVQSDVEGVEDVKNICARLHISIHRWEHSEELYAVRNQLHLQTQVLKAHSDHSSRVLQECVQRDELIKMHTEKSALLATKLRKQSSEVDKLQKECDKLDRKIAKRSEVAQKDLDAMAVKSTATVLSLTSQFFKVMHKNGAFIADRFSPDRAGVGAHDFDTASDDAVTGTLRRLHSVRSEMSSVAPSAVYGQNYNTFHPSEADTRVSDGARNSGIPLRYETSVPPAMSA,not soluble
14,GPGSMKALVRRFGPEPSVIEECSADQEWEKPCLASTEDTAVAPGDSVKDTRNNLSGSEGLANGRAESSQRAVDVSSFIRLFSVEWCLTEEQQAENSRRLDAFFHPHPAPPSCQPAPLLPSVQTCGETVDPDIWSLPEVSQEELQRWREEKLSLSDRLVWRGRKTIKQVNMRRM,not soluble
15,GPGSMKKELRVGVLISGRGSNLEALAKAFSTEESSVVISCVISNNAEARGLLIAQSYGIPTFVVKRKPLDIEHISTVLREHDVDLVCLAGFMSILPEKFVTDWHHKIINIHPSLLPSFKGLNAQEQAYKAGVKIAGCTLHYVYQELDAGPIIMQAAVPVLREDTAESLASRILAAEHVCYPKGVKLIAQDKIKLCDDGTVQCTGEDELFLFQENF,soluble
16,GPGSMKTIRKRMRLSVSGRSSARSGMSSDTRLPAAVLERETKVINYSHSTSRAMAAQLENCVRLIRGYQASLQYCNEEIEGALLSLGVATTHSLISSITSVMEGLDTLSGVCRAMHEGYNEEVRHREDLHTSLTGAYISLKELHEATENELREVVAERDRKVAAFGKAVAYVEAVVAERMLWQEANGYNCAGLPVVEMSFSESCHEALRKFDDTVSEAQGEGHSNAESLLASTDVPQTLAKRWDNVENLRHTNGLPSARVLYVPPKDEVELLRNVLEMGTGDRALMWDVQQRERALQDSLTNIHVFGHSCLKALHSMREELAEFRQWFLTIDRKCEPIVVAMRKLGNGVCGLSSASDKNLPH,not soluble
17,GPGSMLASTPGSNFGGAVASSNNNGGQQPQRRMHPIRPLTIKQMLEAQSVGGGVLVVDGREVTQATVVGRVVGYENANMASGGGAITAKHFGYRITDNTGMLVVRQWIDADRMQEPLAINTHVRASGTVNVWQQTPIVTGTVVSMADSNEMNYHMLDAILTHFRLTQGNKRAPSSGVSIQNTASAVGMHNMLPGGDNKVLLTDLLVSFIKQHGSSGAGMSMDELTTSAQRYGFTHGDVRTAMRTLAAEGKVYQTHDNRFNI,soluble
18,GPGSMLHDAPWHLSLAHRCLAPHGVVAIMGYATRVCVVAPEAARRDADDFMEDLQRTAREAAKMKDSKELRVALGRAIDISSSLDAGHADMYFPFRSTKRRWFTSEYAATPAQLAASYRALPEYQLLSREMPRYRQALISGRQKVQVGEETEKDEPVNVFRRQHGAEPLEVLQGCLQAQVMSLHGRNTPAMPPLRVQVRHFIITCSSRSVNAASEPFQLRSLRREIPQLK,not soluble
19,GPGSMLRPSSLCRVAFPVHRDTTKTPRLVKEVGSWLYKRETVESFRAWCKANNVRGSGNVKVVSTMHYARCLRAARHLRPGQAIITLPHTACFNFLVVAKEMYGVSGKGGTVSHNFPLEVNWMNYDERCSFLRSASMSELTTAGWMCRIASLEESRFTPYIHWLLEDTRGRDGVANGVSRERGEESGLVDHYFSEMATDACEDPEEFLENLFRSFAALHLRAVPIESAAIRLFLPGTNFFKAKVDEMFVPTLMPLIDAVPQLEDGLHNTAVEYFPFSDEETLLKQCKDLVLSEGGTNEMRELRRRCLAQEQGAGAFFALRALCPIEEGDYLYVRGVPKLGAPEQESMTVRVMEANRLLNNE,not soluble
20,GPGSMLSERACLHPGRALKCERFLAIFPQNVKEMLLQNPLFVQNSRVAERSIIRHNQFLLACYMTYLILRNDENAEGQALKYINFMPRNEGNFEQLISNMNGVLDGAAACQSAQAALSLQFGITQAEVRPLLQWSMAMIFSRMAPIDHRWTLQCAFKNTPFAPAFDIRGPDDDANMVKEPIAFLCPVIDMCNHSDHENVALMVPQRTDSSHESVICLRSLRDIDRGEELTMTYGGSPTELRVIWGMQRVL,not soluble
21,GPGSMMREAGRQRRRNADSDESSSEDEQQQTTTTVQETTAAAPPARVRAKAPAAAVVSAPSMTLHADPTATQVTAPSAVSAETADSEGGSNEDAPSSAAAAAPPNEFSEEMEAIDYDALTYAALLDIMNRASRPVIEELMAQREQQVESTMQQQQNQRVERFLDVATTSSATAAEANGSSAEEEAAEGYRYNTMLTRLFEALNRNNEGSAMTERNQLPVPILERMGKKKTVIANFGRICDAFHRPMEDVKDFIEKELSIRGNLDSNNALILKFEIRKQTDFDRVLIKYLDEYVKCNSCHRIDTTLTKDGRRLELRCNVCTATRTVTAAGTATFSAQIEKRSRQRAAMIL,soluble
22,GPGSMNIRQRKSERHKEVLRKLSQNGGNKNCFDCGMRGPLYVVSDFGILVCSGCSAVHRSFQHKVKGITMSEFTDDEIARFSVSGNDRARKVWLSTFHDQLPRSGNVMALKDHVHVVFEERRFWSAQELSA,soluble
23,GPGSMPERMTAALAARLVASPLKYVLLDIDGVIWCGGHVIDRVPETLQYLRGQGKQIRFLSNNASFSREQLMQSLKAKGIEGVTVEECYNSAYTAALRLRQMLGKADVPGEEPLVHGNVFVIGEQGLHDELQQVLAPGFITYGVELHDAVRAGGYDTDALGSAWRVPCLPPPQKRLVVCNGKACRMVQAGTNSAEKISLSDLNAAAVVVGLDKHFNIVKLAYGSLVLQGPPKDLREESYTPPLFVATNEDPQLPVGRDGTMIPGAGSMVSALCTAVGKRPDAVCGKPHKDMANILFAAEGVTNPREECIMIGDRLTTDVAFGNAAGCQSMLVLSGAEGLADVEEAEKQGRTALVPKYVAESLACFLPL,soluble
24,GPGSMPKEPILHAELREWLEEYRRHRAFNPIAWIEEKCTKLNEYMRNNKLRGCVTNVSGGVDSAVVLSLCSRAQRMEGSPIVRNVGICQPICSSAWALERGRENIRAAGAEEVVVDQTDIHRQLSLSVEAAVGIDGKDFARGQLRSYMRAPVGYYVAQLCSQSGTPTIVMGTGNMDEDGYLGYFCKAGDGVVDVQLISDLHKSEVFKVARELGVPENTLQAAPSADLWDGQTDEEELGFPYDFVELYTGYFLKLNNGEREMKKKSLSAEARHQFEAYMKSCEETHCRNAHKLNGIVNL,soluble
